Data reported in patent US8993839B2, “Plant-based production of heterologous proteins” (The Regents of the University of California, priority 2010, dated 2015).

Substrate: Cc1cc(=O)oc2cc(O[C@@H]3O[C@H](CO)[C@@H](O[C@@H]4O[C@H](CO)[C@@H](O)[C@H](O)[C@H]4O)[C@H](O)[C@H]3O)ccc12
Experiment: Michaelis-Menten kinetics of purified E1 (produced in P. pastoris, IMAC purified): cleavage of MUC to cellobiose and MU at various temperatures
Format: biochemical, Acidothermus cellulolyticus
Details: substrate MUC, from Lineweaver-Burk fit
Procedure: Endoglucanase activity assay: Endoglucanase (E1) cleaves methylumbelliferyl-tagged cellobiose (MUC), releasing methylumbelliferone (MU). The MU fluorescence can be measured to determine E1 activity. The relative fluorescence readings of 0.024 to 3.0 μM MU solutions were used to create a linear standard curve. Samples containing E1 were diluted so the concentration of MU released fell within the standard curve. A 60 μl aliquot of diluted supernatant was added to 540 μl of acetate buffer (200 mM acetate, pH 5.5, 100 mM NaCl) and 200 μl of substrate (500 μM MUC). 200 μl of reaction was sampled at time zero and after 30 minutes and added to 800 μl of stop buffer (150 mM glycine, pH 10). The change in fluorescence over time was measured with a VersaFluor fluorometer (Bio-Rad). Fluorescence was converted to an activity, and the specific activity reported in the literature was used to approximate the concentration of E1 in Pichia supernatants. The Michaelis-Menten kinetic parameters of purified endoglucanase were determined. The E1 was produced in P. pastoris and purified by IMAC (immobilized metal affinity chromatography). E1 cleaves the substrate (MUC) into cellobiose and a fluorophore (MU), the concentration of which can be monitored over time. When run at 65° C. and […] substrate, this is the reaction used for the activity assay for E1 in plant extracts and yeast cultures. In this set of experiments, the substrate concentration was varied to determine the kinetic parameters at different temperatures. The rate for a reaction displaying Michaelis-Menten kinetics is shown in Equation 1. The rate depends on the catalysis rate (kcat), the total enzyme concentration (ET), the adsorption/desorption rates which are lumped into the Michaelis-Menten constant (KM), and the substrate concentration (S). At high substrate concentrations (S>>KM), the rate approaches a maximum, and […] is often written as Vmax. The parameters Vmax and KM can be determined experimentally by varying the substrate concentration (S) and measuring the reaction rate (V) at each concentration. Equation 1 can be rearranged as a linear equation (Equation 2). When the reciprocal of the reaction rate (V) is plotted against the reciprocal of the substrate concentration (S), a line fitting the data points can be used to determine KM/Vmax (the slope) and 1/Vmax (y-intercept). A Bradford assay was used to determine the E1 protein concentration in each sample, and this value of ET was used to calculate the kcat values in Table 1. Table 1 depicts a summary of Michaelis-Menten parameters for E1-catalyzed degradation of MUC to MU at various temperatures.

[1] = other: 93 °C, uncertainty approaches 100%, not used further, 93.0 °C

B1: Acidothermus cellulolyticus β-1,4-endoglucanase E1 (P. pastoris-produced) (Acidothermus cellulolyticus 11B) (protein)
chain: AGGGYWHTSGREILDANNVPVRIAGINWFGFETCNYVVHGLWSRDYRSMLDQIKSLGYNTIRLPYSDDILKPGTMPNSINFYQMNQDLQGLTSLQVMDKIVAYAGQIGLRIILDRHRPDCSGQSALWYTSSVSEATWISDLQALAQRYKGNPTVVGFDLHNEPHDPACWGCGDPSIDWRLAAERAGNAVLSVNPNLLIFVEGVQSYNGDSYWWGGNLQGAGQYPVVLNVPNRLVYSAHDYATSVYPQTWFSDPTFPNNMPGIWNKNWGYLFNQNIAPVWLGEFGTTLQSTTDQTWLKTLVQYLRPTAQYGADSFQWTFWSWNPDSGDTGGILKDDWQTVDTVKDGYLAPIKSSIFDPVGASASPSSQPSPSVSPSPSPSPSASRTPTPTPTPTASPTPTLTPTATPTPTASPTPSPTAASGARCTASYQVNSDWGNGFTVTVAVTNSGSVATKTWTVSWTFGGNQTITNSWNAAVTQNGQSVTARNMSYNNVIQPGQNTTFGFQASYTGSNAAPTVACAASHHHHHH
Km (other: 50 °C, 50.0 °C): 59 ± 3 µM
Vmax (other: 50 °C, 50.0 °C): 0.083 µM/min
Km (other: 65 °C, 65.0 °C): 131 ± 4 µM
Vmax (other: 65 °C, 65.0 °C): 0.242 µM/min
Km (other: 80 °C, 80.0 °C): 372 ± 50 µM
Vmax (other: 80 °C, 80.0 °C): 0.523 µM/min
Km [1]: 576 ± 570 µM
Vmax [1]: 0.229 µM/min
